Source: US10238736B2, “Adjuvant compositions” (priority 2008, dated 2019)

Tested on: OVA-specific CTL responses
Assay: Relative CTL/cytokine/tetramer responses of mice immunized with OVA
Format: in vivo, C57131/6 mice
Procedure: Female C57131/6 mice (n=10 per group) with a body weight of about 18-20 g were used in the study. They were immunized via intramuscular (IM) injection into the left tibialis anterior muscle with a total volume of 50 μl on study days 0, 14 and 21.
A dose of the composition comprised, in various combinations, one or more of the following components: • Buffer: NaH2PO4.2H20 (229.32 mg/L), NaCl (1168.00 mg/L) and Na2HPO4 (1144.00 mg/L), dissolved in WFI and sterile filtered with a 0.1 μm filter. • Ovalbumin (OVA—Antigen): 10 μg • CpG ODN: 10 μg • Cholesterol: 1 μg • Quil A: 1 μg • DDA: 0.5 μg • Carbopol: 0.0375% • R1005: 50 μg Vaccine Preparation
Buffer was placed in a 50 ml flask with stir bar and stirred at a constant speed throughout all following steps. The components were added in the following order: Antigen (OVA); CPG ODN; Quil A; cholesterol (drop wise); DDA (drop wise); Carbopol®; and Bay R1005®. The composition was stirred at room temperature (approximately 25° C.) for a minimum of 30 minutes while protected from light by covering with foil. The solution was forced through a 25G needle into a syringe to break any large floating particles to obtain a uniform (cloudy) suspension and transferred to sterile glass vials for storage.
The following samples were collected: • Plasma: 4 weeks after the prime vaccination (1 week after second booster vaccination) • Cytotoxic T lymphocyte (CTL) (6 weeks after the prime vaccination (3 weeks after second booster vaccination) • Cytokine secretion in supernatant (4 weeks after the prime vaccination • 24-hour supernatant (IL-2, IL-4, IL-10, TNF • 72-hour supernatant (IFN-g • Tetramer (4 weeks after the prime vaccination • Cytokine producing T cells (6 weeks after the prime vaccination
The results are provided as a relative score that for each adjuvant showing the effect of the adjuvant. The endpoints are a relative scale based on the sum of the individual Cytotoxic T—Lymphocyte responses.

B1: OVA: Ovalbumin antigen, 10 μg, without adjuvant (protein, UniProt P01012 2-386, looked up)
Ovalbumin: GSIGAASMEFCFDVFKELKVHHANENIFYCPIAIMSALAMVYLGAKDSTRTQINKVVRFDKLPGFGDSIEAQCGTSVNVHSSLRDILNQITKPNDVYSFSLASRLYAEERYPILPEYLQCVKELYRGGLEPINFQTAADQARELINSWVESQTNGIIRNVLQPSSVDSQTAMVLVNAIVFKGLWEKAFKDEDTQAMPFRVTEQESKPVQMMYQIGLFRVASMASEKMKILELPFASGTMSMLVLLPDEVSGLEQLESIINFEKLTEWTSSNVMEERKIKVYLPRMKMEEKYNLTSVLMAMGITDVFSSSANLSGISSAESLKISQAVHAAHAEINEAGREVVGSAEAGVDAASVSEEFRADHPFLFCIKHIATNAVLFFGRCVSP
Relative score, 4 weeks after the prime vaccination
  Relative CTL Responses: Tetramer: 1
Relative score, 6 weeks after the prime vaccination
  Relative CTL Responses: CTL: 1
Relative score, 24-hour supernatant
  Relative CTL Responses: IL-2: 1
Relative score, 72-hour supernatant
  Relative CTL Responses: IFN-g: 1
Sum of the individual relative scores
  Relative CTL Responses: Total: 4
